Laboratory results: paper PMC11543927, “Subtleties in Clathrin heavy chain binding boxes provide selectivity among adaptor proteins of budding yeast” (Nature Communications, 2024)
Each block holds one molecule with its values, some of them ahead of it.

T1: ScChc-NTD (Saccharomyces cerevisiae, UniProt P22137)
T1 construct: N-terminal domain (ScChc-NTD, 1–369) was cloned in a pETM-30 vector; His-GST (TEV site); made in house; host or cells: E. coli BL21 (DE3)
T1 sequence (P22137 1-369): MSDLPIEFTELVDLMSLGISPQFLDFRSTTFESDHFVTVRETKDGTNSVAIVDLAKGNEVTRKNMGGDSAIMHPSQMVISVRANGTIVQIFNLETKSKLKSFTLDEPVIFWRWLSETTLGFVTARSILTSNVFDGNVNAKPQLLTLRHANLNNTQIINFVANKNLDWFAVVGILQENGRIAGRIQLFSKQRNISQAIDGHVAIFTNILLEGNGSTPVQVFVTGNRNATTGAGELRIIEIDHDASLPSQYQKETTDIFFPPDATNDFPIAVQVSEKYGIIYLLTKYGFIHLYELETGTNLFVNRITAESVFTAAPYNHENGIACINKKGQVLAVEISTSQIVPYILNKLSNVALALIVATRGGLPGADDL

B1: Yap1801 CBM peptide (NLNLIDM) (peptide)
peptide: NLNLIDM
notes: source: synthetic peptide, bought: NovoProLabs
B2: Apl2.1 CBM peptide (SQDLLDLF) (peptide)
peptide: SQDLLDLF
notes: also called LLDLF peptide; source: synthetic peptide, bought: NovoProLabs
B3: Saccharomyces cerevisiae clathrin heavy chain N-terminal domain (ScChc-NTD, 1-369) (domain or fragment, UniProt P22137 1-369, looked up)
chain: T1 sequence (P22137 1-369)
notes: Clathrin heavy chain N-terminal domain, Saccharomyces cerevisiae, residues 1-369; pETM-30 vector with a His-GST tag and a TEV cleavage site; also called WT NTD; source: E. coli BL21 (DE3), purified (Ni-NTA, TEV cleavage, reverse Ni-NTA, SEC)
B4: Ent2 endogenously tagged with mNeonGreen (Ent2-mNeonGreen) (natural protein, UniProt Q05785 1-613, looked up)
chain: MSKQFVRSAKNMMKGYSSTQVLVRDATANDSRTPSIDTLDDLAQRSYDSVDFFEIMDMLDKRLNDKGKYWRHVAKSLTVLDYLVRFGSENCVLWCRENFYVIKTLREFRHENESGFDEGQIIRVKAKELVSLLNDEERLREERSMNTRNRRANRAARPRPRRQRTRSNPHDSSPSYQDDLEKALEESRITAQEDEQRRRELAQYDDEDPDFQAALQLSKEEEELKQLQELQRLQKQQQSLSQFQAPLQQQQPQQQPAYYDIFGNPISQDEYLQYQYQQDQEQAMAQQRWLDQQQEQQQLAEQQYFQQQQQAAAAASALQQQQTAANMQQQQQQPADFQQPLPTGSNNPFSMDNLERQKQEQQHAQLQRQQEEARQQQEQLKLQQLQRQQQEEAQLHQKRQEEAQLQQQQAQLLQQQAQFQQQQPLKQTRTGNQSISDKYSDLNTLLATGTGIDTFGNTGEARIPAQHTKTGTFINSQGTGYKQVTNEPKNNPFLSNQYTGLPSTNIVPTQTGYGFGNQPQSPPTNSPQQNPTGISYSQPQQQQQPQQQPQYMQNFQQQQPQYAQNFQQQPQYTQNYQQQPQYIQPHQQQQQQQQQQQQQQGYTPDQGVSLIDL
notes: epsin Ent2, Saccharomyces cerevisiae, endogenous locus tagged with mNeonGreen; also called Ent2-WT-mNeonGreen; Ent2p; source: endogenously tagged, S. cerevisiae MK100, in living cells
B5: Ent5.1 CBM peptide (IPDLIDLDD) (peptide)
peptide: IPDLIDLDD
notes: also called Ent5.1 LIDL motif; LIDL peptide; source: synthetic peptide, bought: NovoProLabs
B6: Yap1802 CBM peptide (NPNLIDI) (peptide)
peptide: NPNLIDI
notes: as for B1

How the values were obtained:
ScChc-NTD = target: T1, ScChc-NTD; test: Native MS titration of Ent5.1, 1.75 µM protein in 200 mM NH4AcO pH 9.0; format: binding; settings: global non-linear square fitting of the five measured fractions, four independent sites with the same affinity; read-out: microscopic KD
Description: ScChc-NTD stocks were doubly buffer-exchanged into a 200 mM NH4AcO, pH 9.0 buffered solution by two subsequent runs on P6 biospins (BioRad); the protein concentration was determined photometrically (ε280 nm = 26,930 M^−1cm^−1) and the protein was diluted into 20 µl aliquots. Final samples contained 1.75 µM protein. Samples for competition experiments were prepared similarly for constant (20 µM) Ent1 and varying (0, 5, 10, 15, 20, 25, 30 and 50 µM) Ent2 concentrations and vice versa. Mass measurements. Samples were placed into gold-coated capillaries and after ionization by nano-electrospraying mass-measured in a QE-UHMR orbitrap mass spectrometer (Thermo Fisher Scientific) as follows: 1. establishment of a (“wet”) spray using a capillary voltage of 1.10-1.15 kV but with the syringe locked as to guarantee a relatively high backing pressure. 2. […] By doing so, success in the sense of as least as possible unspecific clusters could be easily monitored by spectrum appearance and distinct downward steps of the total ion current (TIC). […]
The processed output of the native MS interaction data consists of the relative fractions of CHC bound to different numbers of peptides. In this case, we detected CHC bound to up to four peptides. […]
To average the measured fractions related to similar free ligand concentrations, we used log-spaced intervals with base 1.1 starting at 0.011 μM. […]

[1] = target: B3; test: nanoDSF thermal shift; ScChc-NTD 8 µM incubated with eleven peptide concentrations (1:1 dilutions) for 15 min, heated 20-95 °C at 1 °C/min, SEC buffer (50 mM Tris pH 9, 150 mM NaCl, 0.5 mM TCEP); apparent KD from the Tm shift model, one to one binding assumed, global average over all boxes; settings: both partners purified
[2] = target: the molecule itself; test: crystal structure; sitting drop; NTD incubated with excess peptide (between 23 and 40 fold) for 15 min at room temperature (21 °C) before setting up plates
[3] = target: T2, Chc-mScarlet Clathrin and Arrestin box mutant (Cla+Arr) (Saccharomyces cerevisiae, UniProt P22137 1-1653, K63E | I87D | Q89A | K98E | Q195A | I197T | K251E); test: FRET or BRET; acceptor photobleaching FRET in living yeast cells at endocytic patches stalled with Latrunculin A, donor mNeonGreen on Ent1/Ent2, acceptor mScarlet on Chc, 21 °C; trimmed mean FRET efficiency; settings: partners not purified
T2 construct: Clathrin heavy chain, Saccharomyces cerevisiae, the ORF of CHC1 fused in the 3' with mScarlet, Clathrin and Arrestin box mutant; source: S. cerevisiae MK100, mutated plasmid pRS315-5'UTR CHC-mScarlet, endogenous CHC1 knocked out, in living cells; not shown: mScarlet, C-terminal, kept

[4] = target: T3, Clathrin heavy chain fused to mScarlet (Chc-mScarlet), wild type (Saccharomyces cerevisiae, UniProt P22137 1-1653); test: as above; settings: partners not purified
T3 construct: Clathrin heavy chain, Saccharomyces cerevisiae, the ORF of CHC1 fused in the 3' with mScarlet; also called Chc1-mScarlet; ScCHC-mScarlet; not shown: mScarlet, C-terminal, kept

[5] = target: T4, Chc-mScarlet Arrestin box mutant (Q195A, I197T, K251E) (Saccharomyces cerevisiae, UniProt P22137 1-1653, Q195A | I197T | K251E); test: as above; settings: partners not purified
T4 construct: Clathrin heavy chain, Saccharomyces cerevisiae, the ORF of CHC1 fused in the 3' with mScarlet, Arrestin box mutant; also called Arr mutant; source: S. cerevisiae MK100, mutated plasmid pRS315-5'UTR CHC-mScarlet, endogenous CHC1 knocked out, in living cells; not shown: mScarlet, C-terminal, kept

[6] = target: B3; test: native MS; ScChc-NTD 1.75 µM in 200 mM NH4AcO pH 9.0, Ent5.1 peptide up to 100 µM; settings: both partners purified

Kd (ScChc-NTD): 39.1 µM
Molecule: CC[C@H](C)[C@H](N)C(=O)N1CCC[C@H]1C(=O)N[C@@H](CC(=O)O)C(=O)N[C@@H](CC(C)C)C(=O)N[C@H](C(=O)N[C@@H](CC(=O)O)C(=O)N[C@@H](CC(C)C)C(=O)N[C@@H](CC(=O)O)C(=O)N[C@@H](CC(=O)O)C(=O)O)[C@@H](C)CC (single isomer, unassigned) [Ent5.1]

Molecule: B1
Kd [1]: ~598 µM

Molecule: B2
Kd [1]: ~245 µM

Molecule: B3
binding result [2]: binds

Molecule: B4
FRET efficiency [3]: 6.1%
FRET efficiency [4]: 9.02%
FRET efficiency [5]: 6.7%

Molecule: B5
Kd [1]: ~34 µM
stoichiometry N [6]: 3

Molecule: B6
Kd [1]: ~311 µM
